# Test results reported in patent US4614714A.
# B1: novel L-glutamic acid oxidase (Streptomyces sp.) (protein)
# chain 1: ANEMTYEQLARELLLVGPAPTNEDLKLRYLDVLIDNGLNPPGPPKRILIVGAGIAGLVAGDLLTRAGHDVTILEANANRVGGRIKTFHAKKGEPSPFADPAQYAEAGAMRLPSFHPLTLALIDKLGLKRRLFFNVDIDPQTGNQDAPVPPVFYKSFKDGKTWTNGAPSPEFKEPDKRNHTWIRTNREQVRRAQYATDPSSINEGFHLTGCETRLTVSDMVNQALEPVRDYYSVKQDDGTRVNKPFKEWLAGWADVVRDFDGYSMGRFLREYAEFSDEAVEAIGTIENMTSRLHLAFFHSFLGRSDIDPRATYWEIEGGSRMLPETLAKDLRDQIVMGQRMVRLEYYDPGRDGHHGELTGPGGPAVAIQTVPEGEPY
# chain 2: AATQTWTGDLAIVTIPFSSLRFVKVTPPFSYKKRRAVIETHYDQATKVLLEFSRRWWEFTEADWKRELDAIAPGLYDYYQQWGEDDAEAALALPQSVRNLPTGLLGAHPSVDESRIGEEQVEYYRNSELR
# chain 3: GGVRPATNAYGGGSTTDNPNRFMYYPSHPVPGTQGGVVLAAYSWSDDAARWDSFDDAERYGYALENLQSVHGRRIEVFYTGAGQTQSWLRDPYACGEAAVYTPHQMTAFHLDVVRPEGPVYFAGEHVSLKHAWIEGAVETAVRAAIAVNEAPVGDTGVTAAAGRRGAAAATEPMREEALTS
# Substrate: N[C@@H](CC(=O)O)C(=O)O
# Experiment: purified protein, by the assay type
# Details: other: pH 7.4, 30.0 °C
# Method: The concentration of each substrate was 10 mM, and the reactions were carried out at pH 7.4 (0.1 M potassium phosphate buffer) and pH 6.0 (0.1 M acetate buffer).
# That is, 1 ml of 0.1 M potassium phosphate buffer (pH 7.4) containing 10 mM sodium L-glutamate was charged into an oxygen electrode cell and 10 μl of an enzyme solution was added thereto to measure the oxygen consumption rate. One unit of enzyme was determined as the amount of enzyme which consumes 1μ mol of oxygen per minute at 30° C. in the absence of catalase (unit: hereinafter abbreviated as "U").
protein,measurement,value
B1,Km,29 mM
